What was measured:
[1] = target: MBD2b (GST-tagged, purified) (Homo sapiens, UniProt Q9UBB5 150-411); assay: EMSA; multiple shifts; EMSA: 20 mM HEPES pH 7.9, 1 mM EDTA, 3 mM MgCl2, 10 mM beta-mercaptoethanol, 10% glycerol, 0.1% Triton X-100, 2 ug BSA, 10 ng poly(dI-dC), 30 min on ice; pull-down: 150 mM NaCl, 50 mM Tris pH 8.0, 0.25% NP40, 0.5 mM DTT, poly(dI-dC), 2 h 4 C; conditions: protein: recombinant; tags: GST; label: 32P
[2] = target: RBP-J (GST-tagged, purified) (Homo sapiens, UniProt Q06330 1-500); assay: EMSA; multiple shifts; supershift with one of two antibodies; EMSA: 20 mM HEPES pH 7.9, 1 mM EDTA, 3 mM MgCl2, 10 mM beta-mercaptoethanol, 10% glycerol, 0.1% Triton X-100, 2 ug BSA, 10 ng poly(dI-dC), 30 min on ice; pull-down: 150 mM NaCl, 50 mM Tris pH 8.0, 0.25% NP40, 0.5 mM DTT, poly(dI-dC), 2 h 4 C; conditions: protein: recombinant; tags: His/GST; label: 32P
Chain of RBP-J (GST-tagged, purified) (Q06330 whole entry): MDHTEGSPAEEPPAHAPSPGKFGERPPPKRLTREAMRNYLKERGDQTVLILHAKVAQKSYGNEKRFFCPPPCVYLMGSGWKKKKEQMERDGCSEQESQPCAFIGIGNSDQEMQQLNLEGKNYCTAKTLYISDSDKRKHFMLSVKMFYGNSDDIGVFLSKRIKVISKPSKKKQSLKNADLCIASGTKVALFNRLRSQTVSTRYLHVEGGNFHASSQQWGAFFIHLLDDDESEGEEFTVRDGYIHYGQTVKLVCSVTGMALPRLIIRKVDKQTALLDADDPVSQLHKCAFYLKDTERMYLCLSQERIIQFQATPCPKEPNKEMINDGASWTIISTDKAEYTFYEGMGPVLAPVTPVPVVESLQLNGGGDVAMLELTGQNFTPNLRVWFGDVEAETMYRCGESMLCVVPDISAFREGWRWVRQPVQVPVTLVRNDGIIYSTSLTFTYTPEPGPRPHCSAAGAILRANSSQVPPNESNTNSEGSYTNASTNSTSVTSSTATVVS

Chain of MBD2b (GST-tagged, purified) (Q9UBB5 150-411): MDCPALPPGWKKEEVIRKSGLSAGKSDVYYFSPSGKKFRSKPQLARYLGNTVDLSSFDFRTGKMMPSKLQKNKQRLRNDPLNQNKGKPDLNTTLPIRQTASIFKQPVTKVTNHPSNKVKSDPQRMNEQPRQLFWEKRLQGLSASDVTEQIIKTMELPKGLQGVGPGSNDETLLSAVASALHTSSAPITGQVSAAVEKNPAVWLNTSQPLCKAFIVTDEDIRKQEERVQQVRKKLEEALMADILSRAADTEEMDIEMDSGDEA

B1: GSTP1 CpG-island oligo, methylated (EMSA) (dsDNA)
DNA 1: AAGCAGACACTGGCAGGTTTCGGCGGGAGTCCGCGGGACCCTCCAGAAGAGCGGCCGGCGCCGTGACCTAAGGCTAAGGCTCATA
DNA 2: TTTATGAGCCTTAGCCTTAGGTCACGGCGCCGGCCGCTCTTCTGGAGGGTCCCGCGGACTCCCGCCGAAACCTGCCAGTGTCTGC
modifications: 5-methylcytosine at CpG (M.SssI)
**Q.** Does B1 bind [1]?
**A.** binds

**Q.** Does B1 bind [2]?
**A.** binds
